Molecular target: RBPMS-A dC20 (rat) (UniProt A0A8I6G705)
Test: EMSA
Conditions: apparent; EMSA: 10 nM RNA, 25 mM HEPES pH 7.9, 100 mM KCl, 2 mM MgCl2, 0.625 mM DTT, 0.1 mg/ml BSA, 5% glycerol, 30 C 1 h, then 5 mg/ml heparin 10 min; 5% native PAGE in …

Chain of RBPMS-A dC20 (rat) (A0A8I6G705 1-177): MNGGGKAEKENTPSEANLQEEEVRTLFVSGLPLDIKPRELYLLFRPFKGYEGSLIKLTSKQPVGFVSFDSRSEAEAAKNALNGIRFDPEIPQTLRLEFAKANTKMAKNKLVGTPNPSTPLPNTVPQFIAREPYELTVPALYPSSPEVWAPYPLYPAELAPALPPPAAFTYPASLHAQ

## GUCUACGCACCCUCAACCCGCACCUUGCGGGAUG [(CAC)2]
  Kd: 2500 nM

Source: publication PMC10570038
